Test results reported in publication PMC6969506 (Proceedings of the National Academy of Sciences of the …, 2020).

Biological target: the molecule itself
Assay: SEC-MALS

B1: CDTb construct lacking the C-terminal RBD2 (residues 212 to 751; CDTb∆RBD2) (domain or fragment)
chain: SDWEDEDLDTDNDNIPDSYERNGYTIKDLIAVKWEDSFAEQGYKKYVSNYLESNTAGDPYTDYEKASGSFDKAIKTEARDPLVAAYPIVGVGMEKLIISTNEHASTDQGKTVSRATTNSKTESNTAGVSVNVGYQNGFTANVTTNYSHTTDNSTAVQDSNGESWNTGLSINKGESAYINANVRYYNTGTAPMYKVTPTTNLVLDGDTLSTIKAQENQIGNNLSPGDTYPKKGLSPLALNTMDQFSSRLIPINYDQLKKLDAGKQIKLETTQVSGNFGTKNSSGQIVTEGNSWSDYISQIDSISASIILDTENESYERRVTAKNLQDPEDKTPELTIGEAIEKAFGATKKDGLLYFNDIPIDESCVELIFDDNTANKIKDSLKTLSDKKIYNVKLERGMNILIKTPTYFTNFDDYNNYPSTWSNVNTTNQDGLQGSANKLNGETKIKIPMSELKPYKRYVFSGYSKDPLTSNSIIVKIKAKEEKTDYLVPEQGYTKFSYEFETTEKDSSNIEITLIGSGTTYLDNLSITELNSTPEILDEP
stoichiometry N: 7
